The values that follow come from the supplement of paper PMC9170038.

This series concerns MS2 coat protein. The experiment in a line: apparent KD of MS2 coat protein; higher = weaker reporter binding. The conditions noted are these: Eterna round: R107. The method in brief: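 Values are apparent KD, taken as the median for each design of fits to normalised binding curves from individual clusters. The designed RNA switches were transcribed on-chip from Illumina sequencing clusters and exposed to SNAP-549-labelled MS2 coat protein at twofold increasing amounts from 0.7 or 1.5 nM to 3 µM. Titration used 100 mM Tris-HCl pH 7.5, 80 mM KCl and 4 mM MgCl2, without or with constant ligand.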

The mark [1] stands for this setting: input ligand: theophylline 20 uM.
Where [2] appears, read: input ligand: tryptophan 2.4 mM.
[3] abbreviates: input ligand: theophylline 2 mM.

For “AUAAAUAUAACCGAUACCAGCCUUAUACAUGAGGAUCACCCAUGUUAUGCUUCCUUUCUUGGCCCUUGGCAGCGGAAAUGGGUAA [SSTheo B #13]”, the “apparent KD of MS2 coat protein” value was 36.2 nM (input ligand: arginine 13.2 mM), 48.4 nM under setting [1] and 44.8 nM under setting [2].
With “AUAACAUGAGGAUCACCCAUGUAAGCUGAAGGAGCGCUGGAAACAGCAGGUAGGUCGCAGCGGCGACCUUCCUCAUGAAGGUCGC [(M1)-(M2)-(Arg1)-(Arg2)-(A)'-(M)'-(A)''_Design5]”, the “apparent KD of MS2 coat protein” value is, setting by setting: (input ligand: arginine 13.2 mM) 19.2 nM; (input ligand: none) 14.2 nM; under setting [1], 25.6 nM; under setting [3], 17 nM; under setting [2], 18.5 nM.
As to “AUAAUGGGUAUCGGAUUAUCAUGGAAUGAUACCAGAUACUUAGAUAUCCCUUGGCAGCAUGAGGACAUGAGGAUCACCCAUGUAU [#03 Exclusion-TheophyllineA]”, the “apparent KD of MS2 coat protein” value reads like this: (input ligand: arginine 13.2 mM) 31.3 nM; under setting [1], 56.9 nM; under setting [2], 54.9 nM.
As to “AUACAUGAGGAUCACCCAUGUGAUGGCCGGCGAGGACCGGUACGGCCGCCACUCGUGAUCCGUCCUGAAAGCAAAGCUUCCAGCA [Terion]”, the “apparent KD of MS2 coat protein” value runs as follows: (input ligand: arginine 13.2 mM) 37.4 nM; under setting [1], 273 nM; under setting [3], 437 nM.
Take “AUACCGAGUGAGUCGUGUUUCUUUUCAGAUACCAGACUUUUCGUUGUCCCUUGGCAGCUGUUUUACAUGAGGAUCACCCAUGUUG [#28 Exclusion-TheophyllineA]”: the “apparent KD of MS2 coat protein” value by setting is: (input ligand: arginine 13.2 mM) 16.3 nM; under setting [1], 18.1 nM; under setting [2], 15.2 nM.
As for “AUAUAUACAUGAGGAUCACCCAUGUUAUUACGAGGACCGGUACGGCCGCCACUCGAUAGAGUAGAAGUAAAUUUUAAUUCAUGUA [JR_SSTryptoA_Sub007]”, the “apparent KD of MS2 coat protein” value is, setting by setting: (input ligand: arginine 13.2 mM) 14.6 nM; under setting [1], 15.7 nM; under setting [3], 14.4 nM.
With “AUAUGAUCAUAUGAUACCAGAAAUGGUAUUCCUUUCUUUCUUACAUGAGGAUCACCCAUGUUCCCUUGGCAGCAUAUGAUCAUAU [ETHB #1]”, the “apparent KD of MS2 coat protein” value is, setting by setting: (input ligand: arginine 13.2 mM) 90.7 nM; under setting [1], 210 nM; under setting [2], 153 nM.
For the sequence “AUAUUAAUCGGAAGGAGCGGUACAUGAGGAUCACCCAUGUGCGAAGCCAGCAGAUCCCGUUACCAGGUAGGUCGCCGAGUUAUGA [Begebe]”, the “apparent KD of MS2 coat protein” value stood at 23.6 nM (input ligand: arginine 13.2 mM); 33 nM (input ligand: none); 39.8 nM under setting [1]; 37.5 nM under setting [3]; 30.7 nM under setting [2].
As for “AUAUUAAUCGGAAGGAGCGGUACAUGAGGAUCACCCAUGUGGUAAGCUAGCAGAUCCCGUUACCAGGUAGGUCGCCGAGUUAUGA [XArg-B17]”, the “apparent KD of MS2 coat protein” value (input ligand: arginine 13.2 mM) was found to be 268 nM; the “apparent KD of MS2 coat protein” value (input ligand: none) stood at 201 nM; the “apparent KD of MS2 coat protein” value under setting [1] was determined as 474 nM; the “apparent KD of MS2 coat protein” value under setting [3] turned out to be 510 nM; the “apparent KD of MS2 coat protein” value under setting [2] was 216 nM.
In the case of “AUCAUAAUAGACUCGUUAGAUUAUAUGGAACGAGGACCGGUACGGCCGCCACUCGUGAUGUACAUGAGGAUCACCCAUGUUAGCU [JR_Nu_SSTryptoA_Sub025]”, the “apparent KD of MS2 coat protein” value reads like this: (input ligand: arginine 13.2 mM) 15.2 nM; under setting [1], 18.8 nM; under setting [3], 17 nM.
Consider “AUCCAUAGCCGAAGGAGCGCAGUAGGAUGACAUGAGGAUCACCCAUGUGUGUGAUGUGGAUUGCAGGUAGGUCGCGGAGUGGGUU [Exclusion - Arginine B (Freestyle 7)]”, for which the “apparent KD of MS2 coat protein” value (input ligand: arginine 13.2 mM) came out at 101 nM; the “apparent KD of MS2 coat protein” value (input ligand: none) came out at 65.2 nM; the “apparent KD of MS2 coat protein” value under setting [1] is 124 nM; the “apparent KD of MS2 coat protein” value under setting [3] turned out to be 134 nM; the “apparent KD of MS2 coat protein” value under setting [2] was 79.7 nM.
For the sequence “AUCGUACCUGAGGAUACCAGCAUGUGAUCAUAACAUGAGGAUCACCCAUGUAAUCAGUGAUGCCCUUGGCAGCUUAGUCGAUACA [Same State - Theophylline B (Freestyle 7)]”, the “apparent KD of MS2 coat protein” value is, setting by setting: (input ligand: arginine 13.2 mM) 58.7 nM; under setting [1], 101 nM; under setting [2], 58.3 nM.
“AUCGUACCUGAUGAUACCAGCAUGUGAUCGUAACAUGAGGAUCACCCAUGUGAUCAGUGAUGCCCUUGGCAGCAUGAUCGGUACA [Same State - Theophylline B (Freestyle 15)]”: the “apparent KD of MS2 coat protein” value (input ligand: arginine 13.2 mM) came to 36.6 nM, the “apparent KD of MS2 coat protein” value under setting [1] was found to be 35.8 nM and the “apparent KD of MS2 coat protein” value under setting [2] was found to be 36.7 nM.
Regarding “AUGCAUAGCACGGCCGCCACUCAAAUUAAACAUGAGGAUCACCCAUGUAACAUGGAUAAAAUAAAGAGGACCGGGUGAAAUGCAA [JR_SSTryptoB_Sub010]”, the “apparent KD of MS2 coat protein” value came out at 26 nM (input ligand: arginine 13.2 mM), 36.2 nM under setting [1] and 33.7 nM under setting [3].
On to “AUGCAUGUCAGAAGGAGCGUCAGUAACAUGAGGAUCACCCAUGUAACAUUGAAUUCGAUGAGACAGGUAGGUCGCUGAAUAGUAA [JR_SSArginiB_Sub019]”, for which the “apparent KD of MS2 coat protein” value is, setting by setting: (input ligand: arginine 13.2 mM) 26.4 nM; (input ligand: none) 30.6 nM; under setting [1], 37.7 nM; under setting [3], 35.9 nM; under setting [2], 27.8 nM.
On to “AUGUCGUUGAAUAUAGCGGCUUGGAGUGAUACCAGAAUGAUCCAAUUCCCUUGGCAGCAUUACAUGAGGAUCACCCAUGUUCCAG [SSTheo A #23]”, for which the “apparent KD of MS2 coat protein” value by setting is: (input ligand: arginine 13.2 mM) 24.1 nM; (input ligand: none) 37.1 nM; under setting [1], 55.5 nM; under setting [3], 89.6 nM; under setting [2], 48.6 nM.
“AUGUGCAAUACGGAUACCAGCCCGUGUAGAUACAUGAGGAUCACCCAUGUCAAUGUAAAUGGCCCUUGGCAGCCGUUUGGGAGGC [theeternabot_sameState_MS2_Theo_B_35]”: the “apparent KD of MS2 coat protein” value came out at 13.4 nM (input ligand: arginine 13.2 mM), 19.9 nM under setting [1] and 19.4 nM under setting [2].
In the case of “AUUCAUAACUGAAGGAGCGUGAUAUAAAUUUUUACAUGAGGAUCACCCAUGUUUCAUAGAUCACAGGUAGGUCGCAGAUUCUCAU [JR_SSArginiB_Sub011]”, the “apparent KD of MS2 coat protein” value was found to be 36.8 nM (input ligand: arginine 13.2 mM); 45.2 nM (input ligand: none); 42.4 nM under setting [1]; 42.9 nM under setting [3]; 39.2 nM under setting [2].
As to “AUUGUCGUGUCGGCCGCCACUGUCAUGGUUUUCGUGGAAAACAUGAGGAUCACCCAUGUAAUUGACAGGACCGGGACAUGGCGGC [Ricegesoer]”, the “apparent KD of MS2 coat protein” value reads like this: (input ligand: arginine 13.2 mM) 9.35 nM; under setting [1], 11.1 nM; under setting [3], 9.4 nM.
As for “AUUUGGCGUAGUGUUGCUCGUGGGAUAAAACGAGGACCGGUACGGCCGCCACUCGAUGAUUAACAUGAGGAUCACCCAUGUAAAU [theeternabot_exclusion_MS2_Trp_A_22]”, the “apparent KD of MS2 coat protein” value worked out at 17.5 nM (input ligand: arginine 13.2 mM), 30.6 nM under setting [1] and 32.2 nM under setting [3].
Take “CAAAAUGCGGCGGCCGCCACUCAGCUCCGUGUGGUUGGUCAUCUUAACAUGAGGAUCACCCAUGUGAGGACCGGGCCAGCGAGUG [theeternabot_exclusion_MS2_Trp_B_38]”: the “apparent KD of MS2 coat protein” value is, setting by setting: (input ligand: arginine 13.2 mM) 13.3 nM; under setting [1], 19.6 nM; under setting [3], 17 nM.
Take “CAAAAUUACGGAAGGAGCGCGGGUAGGCGGGUUGGAUCACAUGAGGAUCACCCAUGUAAAUCGCAGGUAGGUCGCCGUAAACGCG [Eslagele]”: the “apparent KD of MS2 coat protein” value (input ligand: arginine 13.2 mM) was found to be 45.6 nM; the “apparent KD of MS2 coat protein” value (input ligand: none) was 28.8 nM; the “apparent KD of MS2 coat protein” value under setting [1] was determined as 43.9 nM; the “apparent KD of MS2 coat protein” value under setting [3] worked out at 76.9 nM; the “apparent KD of MS2 coat protein” value under setting [2] was determined as 36 nM.
As to “CAAGAGUUGUACAUUGUGAGGCGUCGGGAACGAGGACCGGUACGGCCGCCACUCGAAAAUUAACAUGAGGAUCACCCAUGUACAC [theeternabot_exclusion_MS2_Trp_A_35]”, the “apparent KD of MS2 coat protein” value is 36.1 nM (input ligand: arginine 13.2 mM), 72.7 nM under setting [1] and 82.8 nM under setting [3].
The like results for “CAAUAAGUACCGGUCCUCAGAUCCUCAUGACGAGGACCGGUACGGCCGCCACUCGAAACAUGAGGAUCACCCAUGUAAUAAUAAU [Brourdmod01]” were, in that order, 15.3 nM, 31.4 nM and 24.2 nM.
In the case of “CACAGUGCGAAUUUGAAUUCGCACGAUCCUCGAGGACCGGUACGGCCGCCACUCGCGCGGGUCGUACAUGAGGAUCACCCAUGUC [Quermavebe]”, the “apparent KD of MS2 coat protein” value (input ligand: arginine 13.2 mM) was found to be 25 nM, the “apparent KD of MS2 coat protein” value under setting [1] was 233 nM and the “apparent KD of MS2 coat protein” value under setting [3] came to 1190 nM.
